Measured values reported in patent publication US20030113725A1.

Columns and labels:
[1] = test system: HA epitope tagged Del301-303 alpha-2B adrenergic receptor
[2] = biological target: HA epitope tagged wild-type alpha-2B adrenergic receptor (human) (UniProt P18089); assay: cell-based or functional assay
[3] = biological target: HA epitope tagged Del301-303 alpha-2B adrenergic receptor (human) (UniProt P18089); assay: cell-based or functional assay
[4] = biological target: Gi; assay: cell-based or functional assay
[5] = biological target: Gi/Go; assay: cell-based or functional assay

| Molecule | inhibition of adenylyl cyclase (epinephrine, CHO membranes) [4] [% inhibition] | maximal inhibition of adenylyl cyclase (partial agonist oxymetazoline, CHO membranes) [4] [% inhibition] | stimulation of MAP kinase (10 µM epinephrine, CHO cells) (fold increase over basal) [4] | epinephrine-stimulated accumulation of inositol phosphates (10 µM, intact CHO cells) [5] [% over basal] | high affinity dissociation constant KH of the agonist epinephrine (competition with [3H]yohimbine without GTP) [5] [nM] | percentage of receptors in the high-affinity state (% RH), epinephrine competition without GTP [5] [%] | Max Inhibition (%) of adenylyl cyclase, BHT-933 [4] [%] | Max Inhibition (%) of adenylyl cyclase, UK 14304 [4] [%] | Max Inhibition (%) of adenylyl cyclase, clonidine [4] [%] | Max Inhibition (%) of adenylyl cyclase, guanabenz [4] [%] | Max Inhibition (%) of adenylyl cyclase, norepinephrine [4] [%] | Max Inhibition (%) of adenylyl cyclase, oxymetazoline [4] [%] | inhibition of adenylyl cyclase (epinephrine, lower expressing CHO lines) [4] [% inhibition] | maximal inhibition of adenylyl cyclase (epinephrine, higher expressing CHO lines) [4] [% inhibition] | other results |
| --- | --- | --- | --- | --- | --- | --- | --- | --- | --- | --- | --- | --- | --- | --- | --- |
| GRK2 (βARK1) | – | – | – | – | – | – | – | – | – | – | – | – | – | – | agonist-promoted phosphorylation as percent of wild-type [1]: the Del301-303 receptor displayed -56% of wild-type phosphorylation; basal phosphorylation, compared with the wild-type receptor [1]: Basal phosphorylation was equivalent between the two receptors |
| GRK2 (βARK1) (enzyme) | – | – | – | – | – | – | – | – | – | – | – | – | – | – | agonist-promoted whole cell receptor phosphorylation (norepinephrine, COS-7 cells coexpressing GRK2) (fold increase) [2]: 5.84; agonist-promoted whole cell receptor phosphorylation (norepinephrine, COS-7 cells coexpressing GRK2) (fold increase) [3]: 3.28 |
| polymorphic Lys251 alpha-2A adrenergic receptor, P08913 16-465 (receptor) MGSLQPDAGNASWNGTEAPGGGARATPYSLQVTLTLVCLAGLLMLLTVFGNVLVIIAVFTSRALKAPQNLFLVSLASADILVATLVIPFSLANEVMGYWYFGKAWCEIYLALDVLFCTSSIVHLCAISLDRYWSITQAIEYNLKRTPRRIKAIIITVWVISAVISFPPLISIEKKGGGGGPQPAEPRCEINDQKWYVISSCIGSFFAPCLIMILVYVRIYQIAKRRTRVPPSRRGPDAVAAPPGGTERRPKGLGPERSAGPGGAEAEPLPTQLNGAPGEPAPAGPRDTDALDLEESSSSDHAERPPGPRRPERGPRGKGKARASQVKPGDSLPRRGPGATGIGTPAAGPGEERVGAAKASRWRGRQNREKRFTFVLAVVIGVFVVCWFPFFFTYTLTAVGCSVPRTLFKFFFWFGYCNSSLNPVIYTIFNHDFRRAFKKILCRGDRKRIV | 60 | 50 | 57 | – | – | – | – | – | – | – | – | – | – | – | – |
| wild-type Asn251 alpha-2A adrenergic receptor, P08913 16-465 (receptor) MGSLQPDAGNASWNGTEAPGGGARATPYSLQVTLTLVCLAGLLMLLTVFGNVLVIIAVFTSRALKAPQNLFLVSLASADILVATLVIPFSLANEVMGYWYFGKAWCEIYLALDVLFCTSSIVHLCAISLDRYWSITQAIEYNLKRTPRRIKAIIITVWVISAVISFPPLISIEKKGGGGGPQPAEPRCEINDQKWYVISSCIGSFFAPCLIMILVYVRIYQIAKRRTRVPPSRRGPDAVAAPPGGTERRPNGLGPERSAGPGGAEAEPLPTQLNGAPGEPAPAGPRDTDALDLEESSSSDHAERPPGPRRPERGPRGKGKARASQVKPGDSLPRRGPGATGIGTPAAGPGEERVGAAKASRWRGRQNREKRFTFVLAVVIGVFVVCWFPFFFTYTLTAVGCSVPRTLFKFFFWFGYCNSSLNPVIYTIFNHDFRRAFKKILCRGDRKRIV | 46 | 35 | 15 | – | – | – | – | – | – | – | – | – | – | – | – |
| wild-type alpha-2C adrenergic receptor, P18825 1-462 (receptor) MASPALAAALAVAAAAGPNASGAGERGSGGVANASGASWGPPRGQYSAGAVAGLAAVVGFLIVFTVVGNVLVVIAVLTSRALRAPQNLFLVSLASADILVATLVMPFSLANELMAYWYFGQVWCGVYLALDVLFCTSSIVHLCAISLDRYWSVTQAVEYNLKRTPRRVKATIVAVWLISAVISFPPLVSLYRQPDGAAYPQCGLNDETWYILSSCIGSFFAPCLIMGLVYARIYRVAKRRTRTLSEKRAPVGPDGASPTTENGLGAAAGAGENGHCAPPPADVEPDESSAAAERRRRRGALRRGGRRRAGAEGGAGGADGQGAGPGAAESGALTASRSPGPGGRLSRASSRSVEFFLSRRRRARSSVCRRKVAQAREKRFTFVLAVVMGVFVLCWFPFFFIYSLYGICREACQVPGPLFKFFFWIGYCNSSLNPVIYTVFNQDFRPSFKHILFRRRRRGFRQ | – | – | – | 30 | 3.7 | 49 | 56.8 | 67.6 | 38.5 | 53.8 | 76.6 | 27 | 73 | 60 | – |
| Del322-325 alpha-2C adrenergic receptor, P18825 1-462 (receptor) MASPALAAALAVAAAAGPNASGAGERGSGGVANASGASWGPPRGQYSAGAVAGLAAVVGFLIVFTVVGNVLVVIAVLTSRALRAPQNLFLVSLASADILVATLVMPFSLANELMAYWYFGQVWCGVYLALDVLFCTSSIVHLCAISLDRYWSVTQAVEYNLKRTPRRVKATIVAVWLISAVISFPPLVSLYRQPDGAAYPQCGLNDETWYILSSCIGSFFAPCLIMGLVYARIYRVAKRRTRTLSEKRAPVGPDGASPTTENGLGAAAGAGENGHCAPPPADVEPDESSAAAERRRRRGALRRGGRRRAGAEGGAGGADGQGAAESGALTASRSPGPGGRLSRASSRSVEFFLSRRRRARSSVCRRKVAQAREKRFTFVLAVVMGVFVLCWFPFFFIYSLYGICREACQVPGPLFKFFFWIGYCNSSLNPVIYTVFNQDFRPSFKHILFRRRRRGFRQ | – | – | – | 11 | 7.3 | 31 | 26.7 | 30.8 | 20.9 | 30 | 34.9 | 12.8 | 10 | 31 | impairment of inositol phosphate accumulation against wild-type [5]: 60 % impairment; impairment of maximal adenylyl cyclase inhibition against wild-type (higher expressing CHO lines) [4]: 50 % impairment |
